Assay results: patent US20030096275

Target: T1, ArsR (Escherichia coli) (UniProt P15905)
T1 sequence: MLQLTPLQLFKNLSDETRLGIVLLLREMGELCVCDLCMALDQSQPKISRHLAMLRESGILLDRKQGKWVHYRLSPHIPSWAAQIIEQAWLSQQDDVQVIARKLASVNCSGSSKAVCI
Test: SPR
Conditions: ±10 nM, HBS-EP pH 7.4, 25 C

[1] = one value stated for all sequences although affinities said to differ, binding inhibited about 55% by 100 uM phenylarsine oxide …
[2] = one value stated for all sequences

Row | Sequence | Kd [1] [nM] | Kd [2] [nM]
1 | CTGCACTTACACATTCGTTAAGTCATATATGTTTTTGACTTA / TAAGTCAAAAACATATATGACTTAACGAATGTGTAAGTGC [CHROML1] | 500 | 
2 | TTAAGTCATATATGTTTTTGACTTA (double strand) [CHROMS1] |  | 500
3 | TTAATCATATGCGTTTTTGGTTA / TAACCAAAAACGCATATGATT [PLASS1] |  | 500
4 | TTAATCATATGCGTTTTTGGTTATGTGTTG / CAACACATAACCAAAAACGCATATGATT [PLASL1] | 500 | 
